Measurements reported in paper PMC6082870 (2018).

T1: human lysyl hydroxylase 3 (LH3/PLOD3), wild type (human, UniProt O60568 25-738, N-linked glycosylations at Asn63 and Asn548)
T1 chain: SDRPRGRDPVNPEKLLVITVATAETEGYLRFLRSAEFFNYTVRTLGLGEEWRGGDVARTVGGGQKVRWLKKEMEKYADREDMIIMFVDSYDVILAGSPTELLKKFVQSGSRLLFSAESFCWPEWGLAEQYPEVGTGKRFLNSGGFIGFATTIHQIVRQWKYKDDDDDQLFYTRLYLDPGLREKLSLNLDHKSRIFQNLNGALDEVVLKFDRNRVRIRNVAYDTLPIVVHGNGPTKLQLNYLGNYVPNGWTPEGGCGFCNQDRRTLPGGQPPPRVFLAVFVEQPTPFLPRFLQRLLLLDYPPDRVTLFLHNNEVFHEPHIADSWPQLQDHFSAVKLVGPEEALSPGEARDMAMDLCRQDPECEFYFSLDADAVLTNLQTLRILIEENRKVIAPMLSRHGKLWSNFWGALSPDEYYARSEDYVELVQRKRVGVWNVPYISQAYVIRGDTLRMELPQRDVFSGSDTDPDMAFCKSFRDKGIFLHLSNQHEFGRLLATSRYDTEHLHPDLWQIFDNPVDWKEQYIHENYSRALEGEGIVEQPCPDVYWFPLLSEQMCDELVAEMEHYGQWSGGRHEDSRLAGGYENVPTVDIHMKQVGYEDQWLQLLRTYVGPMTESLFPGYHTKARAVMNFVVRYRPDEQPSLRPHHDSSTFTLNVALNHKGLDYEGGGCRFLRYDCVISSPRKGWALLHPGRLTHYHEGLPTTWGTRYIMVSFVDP


Tests used:
Assay in all cases: SPR
[1] = molecular target: T1, human lysyl hydroxylase 3 (LH3/PLOD3), …
LH3 W75A mutant = LH3 W75A mutant (human, UniProt O60568 25-738, W75A)
LH3 Y114A mutant = LH3 Y114A mutant (human, UniProt O60568 25-738, Y114A)
LH3 Y114A mutant, sequence (O60568 25-738 Y114A): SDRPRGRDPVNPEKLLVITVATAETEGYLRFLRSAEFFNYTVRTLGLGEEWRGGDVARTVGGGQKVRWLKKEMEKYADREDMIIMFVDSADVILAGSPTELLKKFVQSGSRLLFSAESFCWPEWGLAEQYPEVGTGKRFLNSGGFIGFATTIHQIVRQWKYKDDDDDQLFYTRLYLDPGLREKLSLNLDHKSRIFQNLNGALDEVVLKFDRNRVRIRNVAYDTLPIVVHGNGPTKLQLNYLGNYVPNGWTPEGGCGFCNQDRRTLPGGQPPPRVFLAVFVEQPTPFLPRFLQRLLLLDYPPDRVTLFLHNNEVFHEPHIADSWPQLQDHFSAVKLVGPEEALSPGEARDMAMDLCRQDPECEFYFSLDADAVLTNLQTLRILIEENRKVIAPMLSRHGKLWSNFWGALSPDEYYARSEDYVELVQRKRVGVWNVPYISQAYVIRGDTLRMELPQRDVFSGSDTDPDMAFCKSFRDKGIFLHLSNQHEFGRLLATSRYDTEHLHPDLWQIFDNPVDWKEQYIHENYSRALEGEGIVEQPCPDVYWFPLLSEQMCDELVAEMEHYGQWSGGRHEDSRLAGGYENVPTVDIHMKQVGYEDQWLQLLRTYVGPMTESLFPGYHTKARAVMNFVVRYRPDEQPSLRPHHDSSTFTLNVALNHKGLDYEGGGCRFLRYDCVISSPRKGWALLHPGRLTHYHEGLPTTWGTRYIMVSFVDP

LH3 W75A mutant, sequence (O60568 25-738 W75A): as the sequence (O60568 25-738 Y114A) above, with W51A, A90Y counted along it

Kd [1] [mM]	Kd (LH3 W75A mutant) [mM]	Kd (LH3 Y114A mutant) [mM]	Binder
2.4	–	–	GIKGIKGIKGIK
6.7	–	–	IKGIKGIKG
4.4	4.7	6.3	ARGIKGIRGFS
